This note sets out measurements from US20250154287A1.

The test concerns the target CD19 on B cells and plasma cells in PBMCs (human) (UniProt P15391). Put plainly: cell-based or functional assay.

CD19 on B cells and plasma cells in PBMCs (human), sequence (P15391 20-556): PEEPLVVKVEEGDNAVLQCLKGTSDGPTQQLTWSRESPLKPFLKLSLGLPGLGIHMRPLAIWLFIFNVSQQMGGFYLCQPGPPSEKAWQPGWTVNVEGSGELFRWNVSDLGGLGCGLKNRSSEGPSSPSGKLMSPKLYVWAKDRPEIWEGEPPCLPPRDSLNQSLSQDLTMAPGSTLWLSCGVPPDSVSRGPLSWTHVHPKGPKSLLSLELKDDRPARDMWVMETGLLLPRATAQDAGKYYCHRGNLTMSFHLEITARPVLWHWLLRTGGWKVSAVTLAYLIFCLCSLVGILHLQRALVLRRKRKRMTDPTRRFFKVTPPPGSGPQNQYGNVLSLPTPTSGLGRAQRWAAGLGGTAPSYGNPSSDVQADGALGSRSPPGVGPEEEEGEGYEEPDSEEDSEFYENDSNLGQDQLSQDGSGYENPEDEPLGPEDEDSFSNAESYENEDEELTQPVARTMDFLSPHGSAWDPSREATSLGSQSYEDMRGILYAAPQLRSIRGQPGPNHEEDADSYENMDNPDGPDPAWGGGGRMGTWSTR

Substance “CD19-CD3 scFv (InvivoGen, Cat number Bimab-cd19cd3-01)” displayed an EC50 (nM), cytotoxicity against IgA^+ CD20^+ B cells by flow cytometry of 0.00325 nM; an EC50 (nM), reduction in secreted IgA in human PBMC supernatants of 0.0368 nM; a Top (MFI) as printed, cytotoxicity against IgA^+ CD20^+ B cells by flow cytometry of 92.8; a reduction of secreted IgA in PBMC supernatants (IgA ELISA) of 57%.
